In US12139542B2, “Inhibitors of aortic carboxypeptidase-like protein (ACLP)” (TRUSTEES OF BOSTON UNIVERSITY, priority 2014, dated 2024):

T1: TGFβ Receptor II (TβRII) (Mus musculus, UniProt Q62312)
T1 construct: contains the extracellular domain of mouse TβRII fused to the Fc domain of human IgG; purchased R&D
T1 sequence (Q62312 24-166 limits assumed): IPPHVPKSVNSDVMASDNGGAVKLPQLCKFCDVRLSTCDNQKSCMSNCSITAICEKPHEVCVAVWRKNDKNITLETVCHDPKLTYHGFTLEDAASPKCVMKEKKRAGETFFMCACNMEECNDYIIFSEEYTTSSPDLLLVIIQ

B1: rACLP: recombinant full length mouse ACLP (amino acids 26-1128), BM40 signal sequence, C-terminal myc-His tag, from AD293 cells (protein)
chain: QTVLTDDEIEEFLEGFLSELETQSPPREDDVEVQPLPEPTQRPRKSKAGGKQRADVEVPPEKNKDKEKKGKKDKGPKATKPLEGSTRPTKKPKEKPPKATKKPKEKPPKATKKPKEKPPKATKKPKEKPPKATKRPSAGKKFSTVAPLETLDRLLPSPSNPSAQELPQKRDTPFPNAWQGQGEETQVEAKQPRPEPEEETEMPTLDYNDQIEKEDYEDFEYIRRQKQPRPTPSRRRLWPERPEEKTEEPEERKEVEPPLKPLLPPDYGDSYVIPNYDDLDYYFPHPPPQKPDVGQEVDEEKEEMKKPKKEGSSPKEDTEDKWTVEKNKDHKGPRKGEELEEEWAPVEKIKCPPIGMESHRIEDNQIRASSMLRHGLGAQRGRLNMQAGANEDDYYDGAWCAEDESQTQWIEVDTRRTTRFTGVITQGRDSSIHDDFVTTFFVGFSNDSQTWVMYTNGYEEMTFYGNVDKDTPVLSELPEPVVARFIRIYPLTWNGSLCMRLEVLGCPVTPVYSYYAQNEVVTTDSLDFRHHSYKDMRQLMKAVNEECPTITRTYSLGKSSRGLKIYAMEISDNPGDHELGEPEFRYTAGIHGNEVLGRELLLLLMQYLCQEYRDGNPRVRNLVQDTRIHLVPSLNPDGYEVAAQMGSEFGNWALGLWTEEGFDIFEDFPDLNSVLWAAEEKKWVPYRVPNNNLPIPERYLSPDATVSTEVRAIISWMEKNPFVLGANLNGGERLVSYPYDMARTPSQEQLLAEALAAARGEDDDGVSEAQETPDHAIFRWLAISFASAHLTMTEPYRGGCQAQDYTSGMGIVNGAKWNPRSGTFNDFSYLHTNCLELSVYLGCDKFPHESELPREWENNKEALLTFMEQVHRGIKGVVTDEQGIPIANATISVSGINHGVKTASGGDYWRILNPGEYRVTAHAEGYTSSAKICNVDYDIGATQCNFILARSNWKRIREILAMNGNRPILRVDPSRPMTPQQRRMQQRRLQYRLRMREQMRLRRLNSTAGPATSPTPALMPPPSPTPAITLRPWEVLPTTTAGWEESETETYTEVVTEFETEYGTDLEVEEIEEEEEEEEEEMDTGLTFPLTTVETYTVNFGDF
modifications: left off: small tags and cut ends
B2: C-terminal ACLP: recombinant C-terminal discoidin and carboxypeptidase domains of mouse ACLP, amino acids 374-1128 (protein)
chain: IKCPPIGMESHRIEDNQIRASSMLRHGLGAQRGRLNMQAGANEDDYYDGAWCAEDESQTQWIEVDTRRTTRFTGVITQGRDSSIHDDFVTTFFVGFSNDSQTWVMYTNGYEEMTFYGNVDKDTPVLSELPEPVVARFIRIYPLTWNGSLCMRLEVLGCPVTPVYSYYAQNEVVTTDSLDFRHHSYKDMRQLMKAVNEECPTITRTYSLGKSSRGLKIYAMEISDNPGDHELGEPEFRYTAGIHGNEVLGRELLLLLMQYLCQEYRDGNPRVRNLVQDTRIHLVPSLNPDGYEVAAQMGSEFGNWALGLWTEEGFDIFEDFPDLNSVLWAAEEKKWVPYRVPNNNLPIPERYLSPDATVSTEVRAIISWMEKNPFVLGANLNGGERLVSYPYDMARTPSQEQLLAEALAAARGEDDDGVSEAQETPDHAIFRWLAISFASAHLTMTEPYRGGCQAQDYTSGMGIVNGAKWNPRSGTFNDFSYLHTNCLELSVYLGCDKFPHESELPREWENNKEALLTFMEQVHRGIKGVVTDEQGIPIANATISVSGINHGVKTASGGDYWRILNPGEYRVTAHAEGYTSSAKICNVDYDIGATQCNFILARSNWKRIREILAMNGNRPILRVDPSRPMTPQQRRMQQRRLQYRLRMREQMRLRRLNSTAGPATSPTPALMPPPSPTPAITLRPWEVLPTTTAGWEESETETYTEVVTEFETEYGTDLEVEEIEEEEEEEEEEMDTGLTFPLTTVETYTVNFGDF
modifications: left off: small tags and cut ends

Assays:
[1] = test system: IMR90 human lung fibroblast cells; test: SMA and collagen I protein expression in IMR90 fibroblasts treated with recombinant ACLP proteins (Western blot); type: cell-based; conditions: IMR90, low serum media, 3.75 μg/ml (~30 nM) protein, 48 h, vs control cells
Protocol: Cell Treatments. IMR90 human lung fibroblasts (ATCC) and AD293 cells (Stratagene) were grown in DMEM supplemented with 10% FBS and 1% penicillin/streptomycin and incubated in a 5% CO2 atmosphere at 37° C. Mink lung epithelial cells stably transfected with the plasminogen activator inhibitor 1 (PAI-1) reporter construct driving luciferase expression (MLEC-TGFβ) (2) were grown in DMEM supplemented with 10% FBS and 1% penicillin/streptomycin, maintained in 250 μg/ml G418, and incubated in a 5% CO2 atmosphere at 37° C.
(§1) IMR90 cells and MLEC-TGFβ cells were generally treated for 30 min, 24 h, or 48 h in low serum media containing 0.5% FBS and 1% penicillin/streptomycin and incubated in a 5% CO2 atmosphere at 37° C. Cells were treated with 3.75 μg/ml (approximately 30 nM) rACLP (full length, Tsp, or C-terminal) or 1 nM TGFβ (R&D) (as a positive control), except where indicated. Cells treated for 30 min were serum starved in low serum media overnight preceding treatment.
Recombinant ACLP induces myofibroblast gene and protein expression. To further define the role of ACLP in the fibroblast to myofibroblast differentiation process, IMR90 human lung fibroblast cells were treated with rACLP. […] IMR90 cells were grown in media containing 3.75 μg/ml (30 nM) rACLP or 1 nM TGFβ as a positive control (FIG. 2A). […] These findings indicate that ACLP promotes the fibroblast to myofibroblast differentiation because it stimulates expression of SMA and collagen 1(3).
The N-terminal domain of ACLP promotes myofibroblast marker protein expression. Because the inventors discovered that the N-terminal Tsp motifs of ACLP (e.g. the PFD) is the domain responsible for promoting TGFβ signaling, the inventors next assessed which domain of ACLP is responsible for increased SMA and collagen I expression in lung myofibroblasts. IMR90 lung fibroblasts were treated in low serum media containing equal molar amounts of full-length protein, the pro-fibrotic domain (PFD) of ACLP, and C-terminal ACLP (˜30 nM) for 48 h (FIG. 7).

TGFβ Receptor II (TβRII) = target: T1, TGFβ Receptor II (TβRII); test: ACLP binding assay: biotinylated rACLP on streptavidin plate incubated with TβRII Fc; conditions: immobilized rACLP vs control-coated wells, p<0.05
Protocol: ACLP binding assays. To determine if ACLP binds to TGFβ Receptor II (TORII), ACLP was biotinylated using an EZ-Link Sulfo-NHS-LC-Biotin kit (Thermo Scientific 21327) according to manufacturer's instructions. Briefly, rACLP (0.267 nM) was incubated with 20 fold molar excess of biotin for 30 min at room temperature. The protein was then dialyzed back into DPBS overnight. Biotinylated ACLP (1 μg/well) was immobilized on a PIERCE™ Streptavidin coated High-Binding Capacity Plate (Thermo-Scientific PI-15500) overnight at 4° C. in binding buffer made up of PBS with Mg^2+, Ca^2+, 0.1% BSA, and 0.05% Tween 20). The next day, the plates were washed with binding buffer, blocked with the same buffer containing 1% BSA at room temperature for 1 h, followed by incubation with increasing amounts of TβRII Fc (0, 10, 100, 1000 ng). Binding was detected with Human-IgG-HRP (GE Healthcare Life Sciences) followed by incubation with 3,3′,5,5′-Tetramethylbenzidine (TMB, eBioscience). The reaction was quenched with 2 M H2SO4 and absorbance at 450 nm was measured on the BioTek Synergy HT system.
ACLP binds to the TGFβ-receptor II. […] The TβRII Fc chimera contains the extracellular domain of mouse TβRII fused to the Fc domain of human IgG and has been used as a global inhibitor of TGFβ (6).

TGFβ = test: ACLP interaction with TGFβ (cell-free binding assay; latent TGFβ activation; data not shown)
[2] = test system: Normal murine mammary gland epithelial cells (NMuMg); test: EMT marker qPCR in NMuMg cells treated with rACLP; type: cell-based, mouse
Protocol: Normal murine mammary gland epithelial cells (NMuMg) were treated with rACLP (30 nM) or TGFβ (1 nM) and RNA was analyzed by qPCR after 48 hours.

[3] = test system: Smad3 phosphorylation (canonical TGFβ signaling); test: Smad3 phosphorylation in serum starved IMR90 fibroblasts (Western blot); type: cell-based, human; conditions: for Smad3 phosphorylation: serum starved IMR90, ~30 nM protein, 30 min, low serum media
Protocol: as §1
rACLP stimulates canonical TGFβ signaling (Published Tumelty et al JBC 2014). Because ACLP increases TGFβ signaling in a reporter assay, the role of ACLP in canonical TGFβ signaling was investigated in detail. In pulmonary fibroblasts, TGFβ promotes the phosphorylation of Smad3 which then binds to Smad4 and translocates into the nucleus to promote transcription of myofibroblast marker genes (4,5). Therefore, the effects of ACLP on Smad3 phosphorylation were measured. Serum starved IMR90 cells were treated with rACLP for 15, 30, 45, or 60 min, or 24 h (FIG. 3) (3).
Serum starved IMR90 human lung fibroblasts were treated with equivalent molar amounts (˜30 nM) of purified full-length, Tsp repeat domain, or C-terminal protein for 30 min in low serum media (FIG. 6).

[4] = test system: TGFβ signaling activity (PAI-1 promoter luciferase); test: MLEC-TGFβ activity assay (PAI-1 promoter luciferase reporter); type: cell-based, mink; conditions: MLEC-TGFβ cells, treated overnight in low serum media
Protocol: Cell Treatments. IMR90 human lung fibroblasts (ATCC) and AD293 cells (Stratagene) were grown in DMEM supplemented with 10% FBS and 1% penicillin/streptomycin and incubated in a 5% CO2 atmosphere at 37° C. Mink lung epithelial cells stably transfected with the plasminogen activator inhibitor 1 (PAI-1) reporter construct driving luciferase expression (MLEC-TGFβ) (2) were grown in DMEM supplemented with 10% FBS and 1% penicillin/streptomycin, maintained in 250 μg/ml G418, and incubated in a 5% CO2 atmosphere at 37° C. IMR90 cells and MLEC-TGFβ cells were generally treated for 30 min, 24 h, or 48 h in low serum media containing 0.5% FBS and 1% penicillin/streptomycin and incubated in a 5% CO2 atmosphere at 37° C. Cells were treated with 3.75 μg/ml (approximately 30 nM) rACLP (full length, Tsp, or C-terminal) or 1 nM TGFβ (R&D) (as a positive control), except where indicated. Cells treated for 30 min were serum starved in low serum media overnight preceding treatment. MLEC-TGFβ activity assay. To measure TGFβ signaling activity, 1×10^4 MLEC-TGFβ cells/well were plated on white 96-well cell culture treated plates and allowed to adhere overnight. […] Luciferase activity was measured on an auto-injecting BioTek Synergy HT plate reader using 50 μl of luciferase assay substrate (Promega).

Molecule	SMA protein expression [1]	collagen protein expression [1]	SMA protein expression ([1]; listed as Full-length ACLP)	collagen protein expression ([1]; listed as Full-length ACLP)	binding to the TβRII Fc chimera (absorbance at 450 nm) (TGFβ Receptor II (TβRII))	activation of latent TGFβ (TGFβ)	direct interaction with TGFβ (TGFβ; cell-free binding assay)	cellular morphology ([2]; ACLP treated cells, consistent with EMT)	epithelial marker occludin (qPCR) ([2]; NMuMg, rACLP 30 nM, 48 hours)	mesenchymal marker SMA (qPCR) ([2]; NMuMg, rACLP 30 nM, 48 hours)	mesenchymal marker Snail (qPCR) ([2]; NMuMg, rACLP 30 nM, 48 hours)	mesenchymal marker fibronectin (qPCR) ([2]; NMuMg, rACLP 30 nM, 48 hours)	time at which Smad3 phosphorylation was first detected ([3]; serum starved IMR90, 3.75 μg/ml rACLP) [min]	Smad3 phosphorylation, short-term treatment ([3]; serum starved IMR90, 3.75 μg/ml rACLP, 15-60 min)	Smad3 phosphorylation after 24 h ([3]; serum starved IMR90, 3.75 μg/ml rACLP, 24 h)	Smad3 phosphorylation [3]	amount that stimulated luciferase activity [4] [µg/mL]
B1	induced an increase	induced an increase	promoted an increase	promoted an increase	significantly more binding	did not appear to	did not appear to directly interact	change in cellular morphology	decreasing	enhanced	enhanced	enhanced	15	stimulated Smad3 phosphorylation	not detectable	stimulated Smad3 phosphorylation	–
B2	–	–	–	–	–	–	–	–	–	–	–	–	–	–	–	did not	> 25
